Molecular target: His6-GFP-nCLU
Experiment: AlphaScreen or HTRF; 30 nM His6-GFP fusion protein with 0-60 nM biotinylated GST-IPO13; triplicates, sigmoidal association curves

Kd: 2.8 nM
B1: biotinylated GST-IPO13 (natural protein)
chain: MERREEQLGAAGAGAAPALDFTVENVEKALHQLYYDPNIDNKNLAQKWLMQAQVSPQAWHFSWQLLQPDKVPEIQYFGASALHIKISRYWSDIPTDQYESLKAQLFTQITRFASGSKIVLTRLCVALASLALSMMPDAWPCAVADMVRLFQAEDSPVDSQGRCLALLELLTVLPEEFQTSRLPQYRKGLVRTSLAVECGTVFPLLEQLLQQPSSPSCVRQKVLKCFSSWVQLEVPLQDCEALIQAAFAALQDSELFDSSVEAIVNAISQPDAQRYVNTLLKLIPLVLGLQEQLRQAVQNGDMETSHGICRIAVALGENHSRALLDQVEHWQSFLALVNMIMFCTGIPGHYPVNETTSSLTLTFWYTLQDDILSFEAEKQAVYQQVYRPVYFQLVDVLLHKAQFPSDEEYGFWSSDEKEQFRIYRVDISDTLMYVYEMLGAELLSNLYDKLGRLLTSSEEPYSWQHTEALLYGFQSIAETIDVNYSDVVPGLIGLIPRISISNVQLADTVMFTIGALSEWLADHPVMINSVLPLVLHALGNPELSVSSVSTLKKICRECKYDLPPYAANIVAVSQDVLMKQIHKTSQCMWLMQALGFLLSALQVEEILKNLHSLISPYIQQLEKLAEEIPNPSNKLAIVHILGLLSNLFTTLDVSHHEDDHEGPELRKLPVPQGPNPVVVVLQQVFQLIQKVLSKWLNDAQVVEAVCAIFEKSVKTLLDDFAPMVPQLCEMLGRMYSTVPQASALDLTRQLVHIFAHEPAHFPPIEALFLLVTSVTLSLFQQGPRDHPDIVDSFMQLLAQALKRKPDLFLCERLDVKAVFQCAVLALKFPEAPTVKASCGFFTELLPRCGEIESVGKVVQEDGRMLLIAVLEAIGGQASRSLMDCFADILFALNKHCFSLLSMWIKEALQPPGFPSARLSPEQKDTFSQQILRERVNKRRVKEMVKEFTLLCRGLHGTDYTADY
modifications: biotinylated

Reference: article PMC9857240
